{
  "source": "paper PMC7652416",
  "about": "“Structural basis of ClpXP recognition and unfolding of ssrA-tagged substrates” (eLife, 2020)",
  "biological_target": "the molecule itself",
  "assay": "cryo-EM structure; single-chain ClpX^∆N (4 µM), ClpP (1.8 µM), ATPγS (2.5 mM) in 20 mM HEPES pH 7.5, 100 mM KCl, 25 mM MgCl2, 5 min at 25°C; equal volume of GFP-G3YG9SENYALAA (20 µM) and ATP (2.5 mM) added; vitrified within 15 s of final mixing",
  "data": [
    {"protein": "E. coli ClpP (enzyme, E. coli (strain K12) ClpP, UniProtKB P0A6G7; Double-ring tetradecamer of two heptameric rings; also called ClpP14; ClpP tetradecamer; source: recombinant (plasmid pT7 ClpP), purified as described (Kim et al., 2000; Bell et al., 2019); copies: 14) not shown", "values": [
      {"measurement": "stoichiometry N", "value": 14}
    ]}
  ]
}
